Reference: patent publication US20210221878A1 (Bristol-Myers Squibb, published 2021)
Where a chain is given by its changes, count along the chain named. In names and notes the source's numbering stands. Read-outs that look alike come from different tables or passages of the source. Primed or numbered codes have the meaning given here. * marks the point of attachment. Biotin = O=C1N[C@H]2[C@H](CS[C@H]2CCCCC(=O)*)N1; PEG4′ = not defined here

T1: 125-135
T1 peptide: {Biotin-PEG4′}-YEMPSEEGYQD-NH2

T2: 123-133
T2 peptide: {Biotin-PEG4′}-EAYEMPSEEGY-NH2

T3: 130-140
T3 construct: also called alphaSyn 130-140
T3 peptide: {Biotin-PEG4′}-EEGYQDYEPEA-NH2

T4: 116-126
T4 construct: also called alphaSyn 116-126
T4 peptide: {Biotin-PEG4′}-MPVDPDNEAYE-NH2

T5: 124-134
T5 construct: also called alphaSyn 124-134
T5 peptide: {Biotin-PEG4′}-AYEMPSEEGYQ-NH2

T6: 128-138
T6 peptide: {Biotin-PEG4′}-PSEEGYQDYEP-NH2

T7: 121-131
T7 construct: also called alphaSyn 121-131
T7 peptide: {Biotin-PEG4′}-DNEAYEMPSEE-NH2

T8: 119-129
T8 peptide: {Biotin-PEG4′}-DPDNEAYEMPS-NH2

T9: 129-139
T9 peptide: {Biotin-PEG4′}-SEEGYQDYEPE-NH2

T10: 117-127
T10 construct: also called alphaSyn 117-127
T10 peptide: {Biotin-PEG4′}-PVDPDNEAYEM-NH2

T11: 120-130
T11 construct: also called alphaSyn 120-130
T11 peptide: {Biotin-PEG4′}-PDNEAYEMPSE-NH2

T12: 122-132
T12 construct: also called alphaSyn 122-132
T12 peptide: {Biotin-PEG4′}-NEAYEMPSEEG-NH2

T13: 118-128
T13 construct: also called alphaSyn 118-128
T13 peptide: {Biotin-PEG4′}-VDPDNEAYEMP-NH2

B1: 15A5 (antibody, V domains shown)
VH: QVQLQESGPGLVKPSETLSLTCTVSGGSVSSGSYYWCWIRQPPGKGLEWIGYIYYSGRTKYNPSLKSRVTISVDTSKNQFSLKLSSVTAADTAVYYCARERGRFDYWGQGTLVTVSS
VL: not shown
B2: 7A10-hIgG1.3f (antibody, V domains shown)
VH: B1 VH with S33R, C37S, A98T, R103Y, F104L
VL: not shown
B3: 7A10-Vh-K58Y-T93A-hHC-IgG1.3f (antibody, name in Kabat numbering, V domains shown)
VH: B1 VH with S33R, C37S, K60Y, R103Y, F104L
VL: not shown
B4: 7A10-Vh-T93A-hHC-IgG1.3f (antibody, V domains shown)
VH: B1 VH with S33R, C37S, R103Y, F104L
VL: not shown
B5: 21A3-Vh-V82L-hHC-IgG1.3f (antibody, V domains shown)
VH: B1 VH with S31N, G32R, S33N, C37S
VL: not shown
B6: 21A3-hIgG1.3f (antibody, V domains shown)
VH: B1 VH with S31N, G32R, S33N, C37S, L84V
VL: not shown
B7: 36A3 (antibody, V domains shown)
VH: B1 VH with C37S, K77R, R103W, F104L, Y106P
VL: not shown
B8: 21A3 (antibody, V domains shown)
VH: B1 VH with S31N, G32R, S33N, C37S, L84V
VL: not shown
notes: also called 21A03
B9: 7A10 (antibody, V domains shown)
VH: B1 VH with S33R, C37S, A98T, R103Y, F104L
VL: not shown
B10: 7A10-Vh-R56S-T93A-hHC-IgG1.3f (antibody, name in Kabat numbering, V domains shown)
VH: B1 VH with S33R, C37S, R58S, R103Y, F104L
VL: not shown
B11: 7A10-Vh-R56S-K58N-T93A-IgG1.3f (antibody, name in Kabat numbering, V domains shown)
VH: B1 VH with S33R, C37S, R58S, K60N, R103Y, F104L
VL: not shown
B12: 44B11 (antibody, V domains shown)
VH: EVQLVESGGGLIQPGGSLRLSCAASGFTVSSKYMSWVRQAPGKGLEWVSVMYSGGRRYYADSVKGRFTISRDNSKNTLYLQMNSLRAEDTAVYYCARGDRGDYWGQGTLVTVSS
VL: EIVLTQSPATLSLSPGERATLSCRASQSVSSYLAWYQQKPGQAPRLLIYDASNRATGIPARFSGSGSGTDFTLTISSLEPEDFAVYYCQQRSNWPITFGQGTRLEIK
B13: 11H11-1 (antibody, V domains shown)
VH: EVQLVQSGGGLVHPGGSLRLSCAGSGFTFSSYAMHWVRQAPGKGLEWVSAIGTGGGTYYADSVKGRFTISRDNAKNSLYLQMNSLRAEDMAVYYCARGNWEFDYWGQGTLVTVSS
VL: not shown
notes: shares its VH with 11H11-2

Tests used:
[1] = biological target: T14, full-length human recombinant wild-type γ-synuclein monomer (human, UniProt O76070 1-127); experiment: competition ELISA: antibody pre-incubated with titrated synuclein species in solution; unbound antibody captured on WT PFF-coated plate (CPS)
T14 construct: mature; also called human γSyn monomer

[2] = biological target: T15, full-length human recombinant wild-type β-synuclein monomer (human, UniProt Q16143 1-134); experiment: as above
T15 construct: mature; also called human βSyn monomer

[3] = biological target: T16, α-synuclein inducing species in brain lysates of MSA patients (12-18, 01-03, 04-51) (human, UniProt P37840 1-140); experiment: cell-based or functional assay
[4] = biological target: T16, α-synuclein inducing species in brain …; experiment: cell-based or functional assay; remark: listed apart in the source
[5] = biological target: PFF used as inducer in the immunodepletion assay of Example 10 (human, UniProt P37840 1-140); experiment: cell-based or functional assay
[6] = biological target: T16, α-synuclein inducing species in brain …; experiment: cell-based or functional assay; remark: listed apart in the source
[7] = biological target: T16, α-synuclein inducing species in brain …; experiment: cell-based or functional assay; remark: listed apart in the source
[8] = biological target: T14, full-length human recombinant wild-type …; experiment: competition ELISA: antibody pre-incubated with titrated synuclein species in solution; unbound antibody captured on WT PFF-coated plate (CPS); remark: listed apart in the source
[9] = biological target: T15, full-length human recombinant wild-type …; experiment: as above; remark: listed apart in the source
[10] = biological target: T14, full-length human recombinant wild-type …; experiment: as above; remark: listed apart in the source
125-135 = biological target: T1, 125-135; experiment: 1-sided ELISA on plate-bound biotinylated peptide, luminescence (CPS)
123-133 = biological target: T2, 123-133; experiment: as above
130-140 = biological target: T3, 130-140; experiment: as above
116-126 = biological target: T4, 116-126; experiment: as above
124-134 = biological target: T5, 124-134; experiment: as above
128-138 = biological target: T6, 128-138; experiment: as above
121-131 = biological target: T7, 121-131; experiment: as above
119-129 = biological target: T8, 119-129; experiment: as above
129-139 = biological target: T9, 129-139; experiment: as above
117-127 = biological target: T10, 117-127; experiment: as above
120-130 = biological target: T11, 120-130; experiment: as above
122-132 = biological target: T12, 122-132; experiment: as above
118-128 = biological target: T13, 118-128; experiment: as above
rat αSyn 111-140 peptide = rat αSyn 111-140 peptide (rat, C-terminal amide (NH2)); experiment: solution competition ELISA, free antibody captured on PFF plate; column Rat 111-140 (nM)
[11] = biological target: T14, full-length human recombinant wild-type …; experiment: competition ELISA: antibody pre-incubated with titrated synuclein species in solution; unbound antibody captured on WT PFF-coated plate (CPS); remark: listed apart in the source
[12] = biological target: T15, full-length human recombinant wild-type …; experiment: as above; remark: listed apart in the source
[13] = biological target: mouse αSyn 111-140 peptide (mouse, C-terminal amide (NH2)); experiment: solution competition ELISA, free antibody captured on PFF plate; column Mouse 111-140 (nM)

T15 sequence (Q16143 whole entry): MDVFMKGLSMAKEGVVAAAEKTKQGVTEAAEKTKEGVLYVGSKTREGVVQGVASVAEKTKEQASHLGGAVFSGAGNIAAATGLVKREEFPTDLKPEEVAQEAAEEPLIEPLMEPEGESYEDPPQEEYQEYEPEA

Row | Binder | IC50 (nM), immunodepletion of pS129-inducing activity from MSA 12-18 lysate [3] [nM] | IC50 (nM), immunodepletion of pS129-inducing activity from MSA 04-51 lysate [4] [nM] | IC50 (nM), immunodepletion of pS129-inducing activity from PFF [5] [nM] | IC50 (nM), immunodepletion of pS129-inducing activity from MSA 01-03 lysate [6] [nM] | IC50 (nM), immunodepletion of pS129-inducing activity from MSA 12-18 lysate [7] [nM] | other results
1 | B1 | 0.61 | 0.12 | 0.042 | 0.59 | – | binding result [1]: binds; binding result [2]: binds
2 | B2 | – | – | – | – | 0.52 | –
3 | B3 | – | – | – | – | 4.65 | –
4 | B4 | – | – | – | – | 0.66 | –
5 | B5 | – | – | – | – | 0.11 | –
6 | B6 | – | – | – | – | 0.19 | –
7 | B7 | 0.63 | 0.17 | 0.057 | 0.55 | – | –
8 | B8 | 0.16 | 0.05 | 0.061 | 0.37 | – | binding result [8]: binds; binding result [9]: binds
9 | B9 | 0.39 | 0.04 | 0.018 | 0.28 | – | binding result [10]: binds
10 | B10 | – | – | – | – | 9 | –
11 | B11 | – | – | – | – | 51 | –
12 | B12 | 2.21 | 0.41 | 0.028 | 2.7 | – | Fold Antibody 1, immunodepletion of MSA 12-18 lysate [3]: 2.5 fold; Fold Antibody 1, immunodepletion of MSA 04-51 lysate [4]: 1.1 fold; binding result (125-135): no binding; binding result (123-133): no binding; binding result (130-140): binds; binding result (116-126): no binding; binding result (124-134): no binding; binding result (128-138): no binding; binding result (121-131): no binding; binding result (119-129): no binding; binding result (129-139): binds; binding result (117-127): no binding; binding result (120-130): no binding; binding result (122-132): no binding; binding result (118-128): no binding; Fold Antibody 1, immunodepletion of PFF [5]: 1.1 fold; Fold Antibody 1, immunodepletion of MSA 01-03 lysate [6]: 0.9 fold
13 | B13 | 0.76 | 0.15 | 0.066 | 2.6 | – | EC50 (rat αSyn 111-140 peptide): 5.71 µM; binding result [11]: binds; binding result [12]: binds; EC50 [13]: 5.75 µM
